Data taken from US20250304718A1, “HER2 SINGLE DOMAIN ANTIBODY AND USES THEREOF” (Institut Curie, priority 2024, published 2025).

B1: humanized anti-HER2 single domain antibody (sdAb) of the invention (VHH)
VHH: EVQLVESGGGLVQPGGSLRLSCAASGAFYKAYNMGWVRQAPGKGLEWVSAISATQGKWVYYADSVKGRFTISRDNSKNTVYLQMNSLRAEDTAVYYCAKLPISKKALYRGQGTLVTVSS
notes: Synthetic humanized/human VH single domain antibody (not a camelid VHH), selected by phage display on SKBR3 cells; also called VH anti-Her2; human VH anti-HER2
B2: anti-HER2 sdAb: fully humanized anti-HER2 VH single domain antibody, SEQ ID NO:2, CDRs SEQ ID NO:7-9 (protein)
VHH: MAEVQLVESGGGLVQPGGSLRLSCAASGAFYKAYNMGWVRQAPGKGLEWVSAISATQGKWVYYADSVKGRFTISRDNSKNTVYLQMNSLRAEDTAVYYCAKLPISKKALYRGQGTLVTVSS

Columns and labels:
[1] = target: T1, HER2 (Receptor tyrosine-protein kinase erbB-2) on the surface of SKBR3 cells (human, UniProt P04626 23-1255); experiment: flow cytometry (FACS) on SKBR3 cells overexpressing HER2; MCF10A HER2-negative cells as control
T1 construct: Endogenous HER2 overexpressed on the SKBR3 breast tumor cell line; also called CD340
Experimental: (§1) From inventors humanized sdAb libraries, a phage display subtraction selection system was developed to identify sdAbs that selectively detect the surface of breast tumor cells. The SKBR3 target cell line was used because it overexpresses the HER2 protein on its surface, while the MCF10A cell line, derived from non-cancerous and HER2-negative mammary gland cells, was used to pre-adsorb the libraries. After 3 successive cycles of selection on these cell lines, sdAb clones were analyzed by flow cytometry (FACS) for their binding capacity on SKBR3 cells and MCF10A cells.

[2] = target: T2, Her2 recombinant ectodomain fused to a Rabbit Fc domain (human; rabbit, UniProt P04626 23-652); experiment: ELISA on recombinant Her2 ectodomain-Rabbit Fc
T2 construct: also called Her2 ectodomain-Rabbit Fc; not shown: Rabbit Fc domain

[3] = test system: Jurkat-derived clone bearing a NFAT-YFP gene reporter; experiment: Reporter cell system for CAR-T cell activity (FACS); format: cell-based; settings: sdAb in second generation CAR (CD8 TM, 4-1BB, CD3z)
From the text: The anti-HER2 sdAb of the invention was also validated for use in CAR-T format. The model of CAR chosen is the one used to treat diffuse lymphomas (Linguanti F, Abenavoli E M, Berti V, Lopci E. Metabolic Imaging in B-Cell Lymphomas during CAR-T Cell Therapy. Cancers (Basel). 2022 Sep. 27; 14(19):4700. doi: 10.3390/cancers14194700. PMID: 36230629; PMCID: PMC9562671). This anti-lymphoma CAR-T therapy called “second generation” comprises the transmembrane domain of CD8, a costimulation domain from 4-1BB and the CD3z signaling domain. In the case of Kymriah® targeting B lymphocytes, the binding module is an anti-CD19 scFv. In the construction of the invention, the anti-CD19 scFv was replaced by the anti-Her2 sdAb of the invention.
The inventors developed a reporter cell system allowing to identify CAR-T cell activity. It is based on a Jurkat-derived clone bearing a NFAT-YFP gene reporter activated by TCR clustering (Blanchard N. et al, The Journal of Immunology, 2004).

[4] = test system: MCF10A cells; experiment: FACS binding of sdAb on MCF10A cells; settings: MCF10A non-cancerous, HER2-negative; data not shown
Experimental: as §1
(§2) A human VH anti-HER2 was selected for further experiments.

[5] = target: T3, Her2 recombinant ectodomain fused to a Rabbit Fc domain (Homo sapiens, UniProt P04626); experiment: ELISA on Her2 recombinant ectodomain; format: binding; settings: data not shown
T3 construct: validated by ELISA on Her2 recombinant ectodomain fused to a Rabbit Fc domain; Rabbit Fc domain
From the text: The anti-HER2 sdAb was afterward validated by ELISA on Her2 recombinant ectodomain fused to a Rabbit Fc domain (data not shown).

[6] = test system: SKBR3 cells; experiment: FACS binding of sdAb on SKBR3 cells; settings: SKBR3 overexpresses HER2 on its surface; data not shown
Experimental: as §1, §2

| Molecule | binding result [1] | binding result [2] | activation detected by FACS [3] | recognition on MCF10A cells in FACS [4] | validation by ELISA [5] | recognition on SKBR3 cells in FACS [6] |
| --- | --- | --- | --- | --- | --- | --- |
| B1 | binds | binds |  |  |  |  |
| B2 |  |  | specific activation | not on MCF10A cells | validated | specific recognition |
